Source: patent US20200055914A1

Assays:
[1] = size-exclusion chromatography, zinc- and phenol-free (self-association control)
[2] = molecular target: lectin-purified insulin receptor (isoform B) (UniProt P06213); assay: receptor-binding assay with lectin-purified insulin receptor

| Substance | molecular weight by SEC [1] | affinity relative to human insulin [2] |
| --- | --- | --- |
| Lys^B28, Pro^B29 (Lispro) insulin | The molecular weight (MW; or molecular mass) of the species was 3.1 kDa | – |
| Trp^B26, Orn^B29 insulin analogue (ligand) | – | 50% |
